Tests used:
[1] = test system: misfolded rhodopsin protein Rh1^G69D; assay: Rh1^G69D protein abundance in cells over-expressing Catsup (ERAD); assay type: in vivo, Drosophila; conditions: border cells, overexpression
Description: The UPR reinstates ER homeostasis by upregulating the protein-folding capacity of the ER and increasing its protein-degradation capacity^62. During ERAD, misfolded proteins are extruded from the ER, ubiquitinated, and degraded by the proteasome^60. To test whether Catsup overexpression might enhance ERAD, we examined Rh1^G69D protein abundance in cells over-expressing Catsup.
Female flies were fattened with yeast for 2 days at 29° C. Egg chambers were dissected from ovaries of female flies in Schneider's medium with 10% FBS (pH=6.85-6.95) as described previously^72. Freshly dissected egg chambers were fixed in 4% paraformaldehyde and then incubated overnight in 1×PBS with 0.4% triton and the following primary antibodies: mouse anti-PDI (1:200) (ADI-SPA-891-D Enzo Life Sciences, Inc.), chicken anti-GFP (1:200) (ab13970 Abcam plc.), Ple (anti-TH) antibody (a gift from the Craig Montell lab), mouse anti-Notch intracellular domain (1:100) C17.9C6 DSHB, rat Ecadherin antibody DCAD2 (1:50) DSHB, V5 Tag Monoclonal Antibody-Alexa Fluor 555 (2F11F7) Invitrogen, mouse anti-dEGFR (1:2000) E2906 Sigma Aldrich. O-fut1 antibody was used to confirm O-fut1 overexpression, and was a gift from Kenneth D. Irvine lab 73. Secondary antibodies were incubated for 2 hours, together with Hoechst stain for nuclei, and phalloidin stain for F-actin. […]

[2] = test system: follicle cells / border cells; assay: ER stress markers (Xbp1::EGFP, PDI) in cells lacking Catsup; assay type: in vivo, Drosophila; conditions: mosaic clones expressing CatsupRNAi
Text: To test if Catsup knockdown induces the UPR in follicle cells, we compared expression of the ER stress marker Xbp1::EGFP^59 in mosaic border cell clusters composed of heterozygous Catsup^+/− and homozygous Catsup^−/− mutant cells. We found high levels of Xbp1 in Catsup^−/− but not Catsup^+/− border cells (FIG. 4A-A″). […] Accumulation of XBP1 and PDI are indicative of induction of an adaptive UPR^60. This effect was rescued by co-expression of CatsupV5 (FIG. 4C-C″).
(§1) Catsup mutant fly was generated by ethyl methanesulfonate (EMS) mutagen^37. The mutation results in glycine(G) to aspartic acid(D) replacement at amino acid 178. The FLP/FRT system was used to generate the Catsup^G178D homozygous mutant clones by combining FRT40A-Catsup^G178D with hsFLP12,yw;ubi:GFPnls, FRT40A or hsFLP12,yw;ubi:RFPnls, FRT40A/(CyO). Catsup::GFP expression pattern visualized by the line from VDRC 318542 in the fTRG stocks library. The UAS-CatsupRNAi transgenic line is from VDRC 100095 P{KK103630}VIE-260B. Wild type rescue w[*]; sna[Sco]/CyO; P{w[+mCJ=UAS-Catsup. V5}6 Bloomington 63229. […]

border cells = assay: Border cell migration in stage 10 egg chambers expressing Catsup RNAi (rescue by co-expressed transgenes); assay type: in vivo, Drosophila; conditions: co-expressed with Catsup RNAi in border cells
Text: Border cell clusters are composed of 4-6 migratory cells that surround and carry two non-migratory polar cells. Expression of a Catsup RNAi line in outer, migratory border cells using fruitlessGal4^51 inhibited migration (FIG. 2A). The defect was rescued by co-expression of UAS-CatsupV5 (FIG. 2B). Reduction of Catsup::GFP confirmed the effectiveness of the RNAi (FIGS. 2C, C′ and 2D, D′). Border cell migration was also impaired when Catsup RNAi was driven by c306Gal4 (FIG. 2E), which is expressed in both polar and migratory cells.
ZIP7 resides in the ER membrane and transports Zn^2+ from the ER to the cytosol^64. To test whether the Zn^2+ transporter activity of Catsup was important for border cell migration, we introduced point mutations, H315A and H344A, which replace histidine residues that are required for Zn^2+ transport and are conserved between Catsup, ZIP7 and a more distant family member from Arabidopsis IRT1. […] We generated transgenic flies expressing the mutants under Gal4/UAS control and included a V5 tag so that we could monitor protein abundance and localization. We then co-expressed each of these RNAi-resistant transgenes with CatsupRNAi and evaluated protein expression and border cell migration (FIGS. 5B-5E). […] All the proteins were stably expressed and correctly localized to the ER (FIGS. 5B-5E), therefore the lack of rescue was likely a consequence of impaired transporter activity rather than impaired expression, localization, or another function. […] From these experiments, we conclude that Zn^2+ transport is an essential function of Catsup in promoting ERAD.
Catsup mutant fly was generated by ethyl methanesulfonate (EMS) mutagen^37. The mutation results in glycine(G) to aspartic acid(D) replacement at amino acid 178. The FLP/FRT system was used to generate the Catsup^G178D homozygous mutant clones by combining FRT40A-Catsup^G178D with hsFLP12,yw;ubi:GFPnls, FRT40A or hsFLP12,yw;ubi:RFPnls, FRT40A/(CyO). Catsup::GFP expression pattern visualized by the line from VDRC 318542 in the fTRG stocks library. The UAS-CatsupRNAi transgenic line is from VDRC 100095 P{KK103630}VIE-260B. Wild type rescue w[*]; sna[Sco]/CyO; P{w[+mCJ=UAS-Catsup. V5}6 Bloomington 63229. Additional transgenic Drosophila stocks used: UAS-wRNAi/Cyo is a lab stock, UAS-PleRNAi Bloomington 25796 y[1] v[1]; P{y[+t7.7] v[+t1.8]=TRiP.JF01813}attP2, UAS-Ple is Bloomington 37539 w[*]; P{w[+mC]=UAS-ple.T}331f2, O-fucosyltransferasel Bloomington 9376 P{UAS-O-fut.}]1.1, UAS-Notch.Intracellular.Domain on third chromosome was a gift from Artavanis-Tsakonas lab^71. The ER stress marker UAS-Xbp1-EGFP.HG Bloomington 60731 w[*]; P{w[+mC]=UAS-Xbp1.EGFP.HG}3, UAS-HSC70-3 Bloomington 5843 w[126]; P{w[+mC]=UAS-Hsc70-3. WT}B. Catsup point mutations were cloned into vector pUASt-attb with forward primer ctctgaatagggaattggg[…] (SEQ ID NO:1) and reverse primer ccgcagatctgttaacgtca[…] (SEQ ID NO:2). The vector was injected to attp2 flies y1 w67c23; P{CaryP}attP2 by BestGene Inc.
When generating UAS-Catsup-point-mutations, we designed the construct so it cannot be targeted by the CatsupRNAi sequences by substituting redundant codons for the same amino acids within the region targeted by the RNAi. The RNAi resistant sequence is below with nucleic acid substitutions in lower case:
Point mutations were designed by changing codons at the following site CatsupH183A (CAC to GCC), CatsupH187A (CAT to GCT), CatsupH315A (CAT to GCT), CatsupH344A ([…]). […]

[3] = test system: border cells expressing Rh1^G69D; assay: ER stress (Xbp1::EGFP) and migration of border cells expressing misfolded rhodopsin Rh1^G69D; assay type: in vivo, Drosophila; conditions: overexpression
Text: To test whether ER stress impairs border cell migration, we expressed a misfolded rhodopsin protein Rh1^G69D, known to induce ER stress^61 As expected, Rh1^G69D induced Xbp1 expression in border cells (FIG. 4D insert). […] Since loss of Catsup caused ER stress, we wondered if Catsup over-expression might suppress ER stress.
as §1, with “63229. Additional transgenic Drosophila stocks used: UAS-wRNAi/Cyo is a lab stock, UAS-PleRNAi Bloomington 25796 y[1] v[1]; P{y[+t7.7] v[+t1.8]=TRiP.JF01813}attP2, UAS-Ple is Bloomington 37539 w[*]; P{w[+mC]=UAS-ple.T}331f2, O-fucosyltransferasel Bloomington 9376 P{UAS-O-fut.}]1.1, UAS-Notch.Intracellular.Domain on third chromosome was a gift from Artavanis-Tsakonas lab^71.” for “63229.”

amyloid β42 = assay: Neurodegeneration due to expression of amyloid β42 in flies; assay type: in vivo; conditions: ZIP7 overexpression
Text: FIG. 10. ZIP7 overexpression suppresses neurodegeneration due to expression of amyloid β42.
(§2) Overexpression of ZIP7 may mitigate ER stress and neuronal cell death in protein aggregation diseases (FIG. 7). We screened aggregate prone proteins for ZIP7 rescue (FIG. 8). ZIP7 overexpression suppressed neurodegeneration due to expression of Vap33 (FIG. 9) and amyloid β42 (FIG. 10).

photoreceptor cells = assay: Rh1G69D-induced photoreceptor cell death (rough eye) in flies; assay type: in vivo; conditions: flies expressing Rh1G69D, ZIP7 overexpression
Text: FIGS. 6A-6B. ZIP7 prevents Rh1G69D-induced photoreceptor cell death, which causes a rough eye. (FIG. 6A) Percentage of flies having the Rh1^G69D genotype that develop rough eye in presence and absence of ZIP7 expression. (FIG. 6B) Comparison of eye morphology of flies having the Rh1^G69D genotype in presence and absence of ZIP7 expression.
ZIP7 overexpression prevented photoreceptor cell death in the eyes of flies expressing mutant forms of rhodopsin.

[4] = test system: ubiquitinated proteins / proteasome; assay: Ubiquitinated protein levels (FK2/DNA ratio) in egg chambers with and without MG132; assay type: in vivo, Drosophila
Description: FIGS. 12A-12C. Overexpressing ZIP7 decreases ubiquitinated protein levels. (FIG. 12A) Egg chambers with and without ZIP7 overexpression (OE) were incubated with media for 5 hours. (FIG. 12B) Egg chambers with and without ZIP7 overexpression (OE) were treated with 10 μM MG132 proteasome inhibitor for 5 hours. (FIG. 12C) Comparison of FK2/DNA ratio egg for chambers incubated with media or 10 μM MG132 proteasome inhibitor for 5 hours with or without ZIP7 overexpression.
Egg chambers with and without ZIP7 overexpression (OE) were incubated with media in the presence or absence of the MG132 proteasome inhibitor (10 μM) for 5 hours (FIGS. 12A and 12B). Overexpressing ZIP7 decreased ubiquitinated protein levels and the FK2/DNA ratio (FIG. 12C).

Vap33 = assay: Neurodegeneration due to expression of Vap33 in flies; assay type: in vivo; conditions: ZIP7 overexpression
Text: FIG. 9. ZIP7 overexpression suppresses neurodegeneration due to expression of Vap33.
as §2

[5] = egg chambers, media with or without 10 μM MG132, 5 hours

Chain of misfolded rhodopsin protein Rh1^G69D (P06002 whole entry G69D): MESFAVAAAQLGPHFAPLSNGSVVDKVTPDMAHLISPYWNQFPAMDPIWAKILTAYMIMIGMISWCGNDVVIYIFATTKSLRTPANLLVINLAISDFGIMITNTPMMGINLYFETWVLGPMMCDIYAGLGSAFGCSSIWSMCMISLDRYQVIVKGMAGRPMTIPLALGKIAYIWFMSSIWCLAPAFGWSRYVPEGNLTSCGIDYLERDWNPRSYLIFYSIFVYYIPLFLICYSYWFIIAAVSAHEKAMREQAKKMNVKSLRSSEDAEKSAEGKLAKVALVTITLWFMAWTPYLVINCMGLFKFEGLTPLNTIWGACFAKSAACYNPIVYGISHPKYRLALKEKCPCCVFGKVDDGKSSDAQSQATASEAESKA

B1: CatsupV5: V5-tagged wild type Catsup, the Drosophila homolog of ZIP7, expressed under Gal4/UAS control (protein, UniProt Q9V3A4 1-449, looked up)
Protein catecholamines up: MAKQVADYQCSKLQLYQKLALVVILGAVLFSLPALCAGQGNPSFKYSREANENFDPQKAPRAEHHHHHDHDHDHGHHHHGHDHDHDHDHGHDHGHHHHGHDHDHDHDHGHHHHGHDERHTKAKPDLDMSTIWLHSIGSTLLISAAPFVLLYIIPLDNSEAMKPRLKVLLAFASGGLLGDAFLHLIPHATHPHSHGEHGHDHGHDHHHHHDGEEHEHGHSHDMSIGLWVLGGIIAFLSVEKLVRILKGGHGGHGHSHGAPKPKPVPAKKKSSDKEDSGDGDKPAKPAKIKSKKPEAEPEGEVEISGYLNLAADFAHNFTDGLAIGASYLAGNSIGIVTTITILLHEVPHEIGDFAILIKSGCSRRKAMLLQLVTALGALAGTALALLGAGGGDGSAPWVLPFTAGGFIYIATVSVLPELLEESTKLKQSLKEIFALLTGVALMIVIAKFE
modifications: V5 tag
notes: V5-tagged wild type Catsup, the Drosophila homolog of ZIP7, expressed under Gal4/UAS control
- Rh1^G69D protein abundance [1]: reduced Rh1^G69D protein to an undetectable level
- rescue of ER stress (Xbp1 and PDI accumulation) [2]: rescued
- rescue of border cell migration defect (border cells): rescued
- Rh1^G69D-induced Xbp1 expression [3]: rescued
- border cell migration blocked by Rh1^G69D [3]: rescued

B2: ZIP7: zinc transporter protein 7, overexpressed from a transgene; SEQ ID NO:4 (Drosophila), SEQ ID NO:5 (human) (protein, UniProt Q92504 1-469, looked up)
Zinc transporter SLC39A7: MARGLGAPHWVAVGLLTWATLGLLVAGLGGHDDLHDDLQEDFHGHSHRHSHEDFHHGHSHAHGHGHTHESIWHGHTHDHDHGHSHEDLHHGHSHGYSHESLYHRGHGHDHEHSHGGYGESGAPGIKQDLDAVTLWAYALGATVLISAAPFFVLFLIPVESNSPRHRSLLQILLSFASGGLLGDAFLHLIPHALEPHSHHTLEQPGHGHSHSGQGPILSVGLWVLSGIVAFLVVEKFVRHVKGGHGHSHGHGHAHSHTRGSHGHGRQERSTKEKQSSEEEEKETRGVQKRRGGSTVPKDGPVRPQNAEEEKRGLDLRVSGYLNLAADLAHNFTDGLAIGASFRGGRGLGILTTMTVLLHEVPHEVGDFAILVQSGCSKKQAMRLQLLTAVGALAGTACALLTEGGAVGSEIAGGAGPGWVLPFTAGGFIYVATVSVLPELLREASPLQSLLEVLGLLGGVIMMVLIAHLE
- neurodegeneration due to expression of amyloid β42 (amyloid β42): suppressed
- photoreceptor cell death (rough eye) (photoreceptor cells): prevented
- FK2/DNA ratio [4, 5]: decreased
- ubiquitinated protein levels [4, 5]: decreased
- activity of the proteasome ([4]; even in the presence of a proteasome inhibitor): enhances
- neurodegeneration due to expression of Vap33 (Vap33): suppressed
